Reference: publication PMC13215203, “Phosphorylation remodels the mitotic centrosome matrix to generate bipartite γ-tubulin complex docking sites” (Science Advances, 2026)

Legend:
[1] = molecular target: the molecule itself; assay: SEC-MALS; Superose 6 increase 10/300 or Superdex 200 increase 10/300 in 20 mM tris-HCl pH 7.5, 50 mM NaCl, 5 mM EGTA, 2 mM MgCl2, 1 mM DTT; 120 μl of ~2.0 mg/ml protein loaded; with or without PLK1 phosphorylation
[2] = molecular target: T1, untagged SPD-5 amino acids 101-473, not phosphorylated (C. elegans, UniProt P91349 101-473); assay: pull-down; MBP pull-down: purified SPD-5 fragments mixed (2.0 μM) with or without PLK1(T194D) in kinase buffer, then 75 nM each with anti-MBP antibody in lysis buffer 2 h at 4°C and protein A beads 1 h; M6HH-tagged fragment is the bait; immunoblot; settings: both partners purified
T1 construct: also called fragment containing the γTuNA-In and PRGB2; source: E. coli BL21(DE3) pLysS, purified (glutathione agarose, cut from GST with PreScission or HRV-3C protease)
T1 sequence (looked up): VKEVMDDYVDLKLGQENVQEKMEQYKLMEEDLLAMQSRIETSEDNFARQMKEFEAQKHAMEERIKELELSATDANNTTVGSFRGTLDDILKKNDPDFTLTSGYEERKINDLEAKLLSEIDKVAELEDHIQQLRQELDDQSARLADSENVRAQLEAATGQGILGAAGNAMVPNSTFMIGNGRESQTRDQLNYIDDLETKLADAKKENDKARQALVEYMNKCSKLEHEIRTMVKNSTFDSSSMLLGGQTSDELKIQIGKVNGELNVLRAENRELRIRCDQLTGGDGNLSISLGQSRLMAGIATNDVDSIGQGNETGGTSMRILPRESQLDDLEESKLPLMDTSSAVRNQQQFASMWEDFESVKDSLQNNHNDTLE

[3] = molecular target: T2, M6HH-tagged SPD-5 amino acids 1-113 (PRGB1), not phosphorylated (C. elegans, UniProt P91349 1-113); assay: as above; settings: both partners purified
T2 construct: source: E. coli BL21(DE3) pLysS, purified (Ni-NTA)
T2 sequence (looked up): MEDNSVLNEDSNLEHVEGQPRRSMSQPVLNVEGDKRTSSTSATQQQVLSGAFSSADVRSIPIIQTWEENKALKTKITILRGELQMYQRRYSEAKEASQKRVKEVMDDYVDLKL

B1: M6HH-tagged SPD-5 amino acids 1-345, not phosphorylated (domain or fragment, C. elegans, UniProt P91349 1-345, looked up)
chain: MEDNSVLNEDSNLEHVEGQPRRSMSQPVLNVEGDKRTSSTSATQQQVLSGAFSSADVRSIPIIQTWEENKALKTKITILRGELQMYQRRYSEAKEASQKRVKEVMDDYVDLKLGQENVQEKMEQYKLMEEDLLAMQSRIETSEDNFARQMKEFEAQKHAMEERIKELELSATDANNTTVGSFRGTLDDILKKNDPDFTLTSGYEERKINDLEAKLLSEIDKVAELEDHIQQLRQELDDQSARLADSENVRAQLEAATGQGILGAAGNAMVPNSTFMIGNGRESQTRDQLNYIDDLETKLADAKKENDKARQALVEYMNKCSKLEHEIRTMVKNSTFDSSSMLLGG
notes: source: E. coli BL21(DE3) pLysS, purified (Ni-NTA)
B1 was tested, and the “stoichiometry N” value [1] was 2.

B2: untagged SPD-5 amino acids 1-473, not phosphorylated (domain or fragment, C. elegans, UniProt P91349 1-473, looked up)
chain: MEDNSVLNEDSNLEHVEGQPRRSMSQPVLNVEGDKRTSSTSATQQQVLSGAFSSADVRSIPIIQTWEENKALKTKITILRGELQMYQRRYSEAKEASQKRVKEVMDDYVDLKLGQENVQEKMEQYKLMEEDLLAMQSRIETSEDNFARQMKEFEAQKHAMEERIKELELSATDANNTTVGSFRGTLDDILKKNDPDFTLTSGYEERKINDLEAKLLSEIDKVAELEDHIQQLRQELDDQSARLADSENVRAQLEAATGQGILGAAGNAMVPNSTFMIGNGRESQTRDQLNYIDDLETKLADAKKENDKARQALVEYMNKCSKLEHEIRTMVKNSTFDSSSMLLGGQTSDELKIQIGKVNGELNVLRAENRELRIRCDQLTGGDGNLSISLGQSRLMAGIATNDVDSIGQGNETGGTSMRILPRESQLDDLEESKLPLMDTSSAVRNQQQFASMWEDFESVKDSLQNNHNDTLE
notes: also called SPD-5 N terminus; source: E. coli BL21(DE3) pLysS, purified (glutathione agarose, cut from GST with PreScission or HRV-3C protease; gel filtration)
For B2, the “stoichiometry N” value [1] was 2.

B3: M6HH-tagged SPD-5 amino acids 1-473, not phosphorylated (domain or fragment, C. elegans, UniProt P91349 1-473, looked up)
chain: MEDNSVLNEDSNLEHVEGQPRRSMSQPVLNVEGDKRTSSTSATQQQVLSGAFSSADVRSIPIIQTWEENKALKTKITILRGELQMYQRRYSEAKEASQKRVKEVMDDYVDLKLGQENVQEKMEQYKLMEEDLLAMQSRIETSEDNFARQMKEFEAQKHAMEERIKELELSATDANNTTVGSFRGTLDDILKKNDPDFTLTSGYEERKINDLEAKLLSEIDKVAELEDHIQQLRQELDDQSARLADSENVRAQLEAATGQGILGAAGNAMVPNSTFMIGNGRESQTRDQLNYIDDLETKLADAKKENDKARQALVEYMNKCSKLEHEIRTMVKNSTFDSSSMLLGGQTSDELKIQIGKVNGELNVLRAENRELRIRCDQLTGGDGNLSISLGQSRLMAGIATNDVDSIGQGNETGGTSMRILPRESQLDDLEESKLPLMDTSSAVRNQQQFASMWEDFESVKDSLQNNHNDTLE
notes: as for B1
In the case of B3, the “stoichiometry N” value [1] is reported as 2.

B4: untagged SPD-5 amino acids 1-473, phosphorylated by PLK1 (domain or fragment, C. elegans, UniProt P91349 1-473, looked up)
chain: MEDNSVLNEDSNLEHVEGQPRRSMSQPVLNVEGDKRTSSTSATQQQVLSGAFSSADVRSIPIIQTWEENKALKTKITILRGELQMYQRRYSEAKEASQKRVKEVMDDYVDLKLGQENVQEKMEQYKLMEEDLLAMQSRIETSEDNFARQMKEFEAQKHAMEERIKELELSATDANNTTVGSFRGTLDDILKKNDPDFTLTSGYEERKINDLEAKLLSEIDKVAELEDHIQQLRQELDDQSARLADSENVRAQLEAATGQGILGAAGNAMVPNSTFMIGNGRESQTRDQLNYIDDLETKLADAKKENDKARQALVEYMNKCSKLEHEIRTMVKNSTFDSSSMLLGGQTSDELKIQIGKVNGELNVLRAENRELRIRCDQLTGGDGNLSISLGQSRLMAGIATNDVDSIGQGNETGGTSMRILPRESQLDDLEESKLPLMDTSSAVRNQQQFASMWEDFESVKDSLQNNHNDTLE
modifications: phosphorylated in vitro by PLK1; predicted sites S5, S11, S170, T178, T198, T274, T335, S339, S340
notes: also called SPD-5 N terminus; source: E. coli BL21(DE3) pLysS, purified (glutathione agarose, cut from GST), then incubated with PLK1 and ATP
For B4, the “stoichiometry N” value [1] was 2.

B5: M6HH-tagged SPD-5 amino acids 1-101 (PRGB1), not phosphorylated (domain or fragment, C. elegans, UniProt P91349 1-101, looked up)
chain: MEDNSVLNEDSNLEHVEGQPRRSMSQPVLNVEGDKRTSSTSATQQQVLSGAFSSADVRSIPIIQTWEENKALKTKITILRGELQMYQRRYSEAKEASQKRV
notes: as for B1
B5: binds [2].

B6: Halo-tagged SPD-5 amino acids 135-200, not phosphorylated (domain or fragment, C. elegans, UniProt P91349 135-200, looked up)
chain: MQSRIETSEDNFARQMKEFEAQKHAMEERIKELELSATDANNTTVGSFRGTLDDILKKNDPDFTLT
notes: as for B1
B6: binds [3].
